# Measurements reported in paper PMC9896932, “Apo and ligand-bound high resolution Cryo-EM structures of the human Kv3.1 channel reveal a novel binding site for positive modulators” (PNAS Nexus, 2022).
# Target: the molecule itself
# Assay: cryo-EM structure; purified flWT-Kv3.1a in LMNG 0.01%, Tris 20 mM pH 7.5, KCl 200 mM, DTT 1 mM; 2 mg/ml on the grid; apo (2.65 Å) and with 500 µM Lu AG00563 (3.0 Å), same organisation of subunits in both
protein,measurement,value
"wild type full length human Kv3.1 isoform a tetramer (natural protein, UniProt P48547 1-511, looked up, Kv3.1 (KCNC1), human, canonical isoform a, wild type, full length; C-terminal prescission 3C site followed by GFP, removed by HRV 3C protease on elution from the resin; The GFP tag was still on the protein when it was captured on the anti-GFP resin (co-purification statement); In the model residues 120-191, 218-239, 268-280, 295-311 and 372-376 were not built; also called flWT-Kv3.1a; Kv3.1a; …) MGQGDESERIVINVGGTRHQTYRSTLRTLPGTRLAWLAEPDAHSHFDYDPRADEFFFDRHPGVFAHILNYYRTGKLHCPADVCGPLYEEELAFWGIDETDVEPCCWMTYRQHRDAEEALDSFGGAPLDNSADDADADGPGDSGDGEDELEMTKRLALSDSPDGRPGGFWRRWQPRIWALFEDPYSSRYARYVAFASLFFILVSITTFCLETHERFNPIVNKTEIENVRNGTQVRYYREAETEAFLTYIEGVCVVWFTFEFLMRVIFCPNKVEFIKNSLNIIDFVAILPFYLEVGLSGLSSKAAKDVLGFLRVVRFVRILRIFKLTRHFVGLRVLGHTLRASTNEFLLLIIFLALGVLIFATMIYYAERIGAQPNDPSASEHTHFKNIPIGFWWAVVTMTTLGYGDMYPQTWSGMLVGALCALAGVLTIAMPVPVIVNNFGMYYSLAMAKQKLPKKKKKHIPRPPQLGSPNYCKSVVNSPHHSTQSDTCPLAQEEILEINRAGRKPLRGMSI",stoichiometry N,4
